# B1: Cas10 subunit of the Synechocystis sp. PCC 6803 Type III-Dv CRISPR-Cas complex, with N-terminal His6 tag and TEV site (other)
# chain: MFLVLIETSGNQHFIFSTNKLRENIGASELTYLATTEILFQGVDRVFQTNYYDQWSDTNSLNFLADSKLNPAIDDPKNNADIEILLATSGKAIALVKEEGKAKQLIKEVTKQALINAPGLEIGGIYVNCNWQDKLGVAKAVKEAHKQFEVNRAKRAGANGRFLRLPIAAGCSVSELPASDFDYNADGDKIPVSTVSKVKRETAKSAKKRLRSVDGRLVNDLAQLEKSFDELDWLAVVHADGNGLGQILLSLEKYIGEQTNRNYIDKYRRLSLALDNCTINAFKMAIAVFKEDSKKIDLPIVPLILGGDDLTVICRGDYALEFTREFLEAFEGQTETHDDIKVIAQKAFGVDRLSACAGISIIKPHFPFSVAYTLAERLIKSAKEVKQKVTVTNSSPITPFPCSAIDFHILYDSSGIDFDRIREKLRPEDNTELYNRPYVVTAAENLSQAQGYEWSQAHSLQTLADRVSYLRSEDGEGKSALPSSQSHALRTALYLEKNEADAQYSLISQRYKILKNFAEDGENKSLFHLENGKYVTRFLDALDAKDFFANANHKNQGE
# notes: Whole gene amplified from Synechocystis genomic DNA and co-expressed in E. coli from pPF2434; The complex also holds a 37-nt crRNA; also called His6-TEV-Cas10; N-His6-tagged Cas10; not shown: TEV cleavage was inefficient, so
# Biological target: T1, Cas7-Cas5-Cas11 fusion subunit of the Synechocystis sp. PCC 6803 Type III-Dv complex (Synechocystis sp. PCC 6803)
# T1 construct: Untagged, co-expressed from pPF2434 in E. coli; one copy in the complex; also called Cas7-5-11; Cas5-Cas7-Cas11
# T1 chain: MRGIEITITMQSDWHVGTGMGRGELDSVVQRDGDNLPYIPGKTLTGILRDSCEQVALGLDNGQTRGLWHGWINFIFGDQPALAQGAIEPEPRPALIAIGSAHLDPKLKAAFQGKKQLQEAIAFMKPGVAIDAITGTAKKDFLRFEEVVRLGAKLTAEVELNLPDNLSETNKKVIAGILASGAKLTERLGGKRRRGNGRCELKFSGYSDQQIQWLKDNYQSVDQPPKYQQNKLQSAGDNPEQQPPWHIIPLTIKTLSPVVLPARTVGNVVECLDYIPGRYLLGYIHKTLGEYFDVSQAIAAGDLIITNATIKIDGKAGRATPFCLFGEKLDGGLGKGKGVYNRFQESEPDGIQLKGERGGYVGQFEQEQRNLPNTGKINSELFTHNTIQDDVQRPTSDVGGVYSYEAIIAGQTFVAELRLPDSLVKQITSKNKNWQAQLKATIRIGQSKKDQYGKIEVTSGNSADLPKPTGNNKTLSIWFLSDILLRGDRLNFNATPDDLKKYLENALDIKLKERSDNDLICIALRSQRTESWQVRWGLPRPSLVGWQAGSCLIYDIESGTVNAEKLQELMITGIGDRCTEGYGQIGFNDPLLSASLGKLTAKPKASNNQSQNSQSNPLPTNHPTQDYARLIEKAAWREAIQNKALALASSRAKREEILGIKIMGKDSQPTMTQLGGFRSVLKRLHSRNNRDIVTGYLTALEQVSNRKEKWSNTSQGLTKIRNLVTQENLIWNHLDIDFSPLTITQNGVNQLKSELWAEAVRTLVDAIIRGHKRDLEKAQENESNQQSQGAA
# Assay: co-purification by metal affinity (His6-Cas10) and SEC; SDS-PAGE and MS; membership of one complex
# Protocol: Cells were lysed by a French pressure cell press (American Industry Company) at 10,000 psi, and the lysate was clarified by centrifugation at 15,000×g for 15 min. […] The fractions containing the Type III-Dv complex were pooled and treated with TEV protease and incubated at 4° C. during overnight dialysis in SEC buffer (10 mM HEPES-NaOH, PH 7.5, 100 mM KCl, 5% Glycerol, 1 mM DTT). The sample was applied to a second HisTrap column; however, due to inefficient TEV cleavage, the complex unexpectedly bound the column and eluted with high imidazole. The complex was further purified by size exclusion chromatography (SEC) on a HiLoad 16/600 Superdex 200 column (GE Healthcare) equilibrated in SEC Buffer). Mutant Type III-Dv complexes were similarly expressed and purified, except TEV protease was omitted. Purified complexes were typically concentrated to 1.5 mg/ml using a centrifugal concentrator (Amicon; 100 kDa MWCO), aliquoted, and stored at −80° C.
# Denaturing liquid chromatography mass spectrometry (LC-MS) was performed on a Dionex UltiMate 3000 nanoLC system coupled to a Thermo Orbitrap Fusion Lumos Tribrid mass spectrometer (San Jose, Ca). The trap column (3 cm) and analytical column (30 cm) were packed in-house with polymer reverse-phase (PLRP) packing material. […]
binder,measurement,value
B1,binding result,binds

# — patent publication US20250361544A1, “TYPE III-D CRISPR-CAS SYSTEM AND USES THEREOF” (BOARD OF REGENTS, THE UNIVERSITY OF TEXAS SYSTEM, published 2025)
